Assay results published in patent US20170281764A1 (JN BIOSCIENCES, published 2017).

Legend:
[1] = target: T1, HA-tagged human TIGIT with mutation N49A, on CHO-K1 cells (human, UniProt Q495A1 22-244); assay: flow cytometry on CHO-K1 cells transiently expressing HA-tagged TIGIT mutant; N49A mutant
T1 sequence: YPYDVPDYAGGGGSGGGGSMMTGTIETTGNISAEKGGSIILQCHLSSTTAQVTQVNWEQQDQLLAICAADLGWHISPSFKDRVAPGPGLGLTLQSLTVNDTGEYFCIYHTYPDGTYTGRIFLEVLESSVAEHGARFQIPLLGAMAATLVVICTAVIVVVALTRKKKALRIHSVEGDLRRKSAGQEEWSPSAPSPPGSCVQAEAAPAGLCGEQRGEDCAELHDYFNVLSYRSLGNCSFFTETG
Description: (§1) For flow cytometry analysis of the anti-hTIGIT antibody binding epitope, HA-tagged human TIGIT proteins with or without single amino acid mutation were transiently transfected into CHO-K1 cells. After 24 hr, transfected cells were suspended in HBSS buffer (Thermo Fisher Scientific, Cat#14175095), and incubated with HuTIG1-IgG1.AA antibody at varying concentrations in 50 μL volume. After 1 hr incubation at 4° C., cells were washed and a second incubation with 50 μL Alexa488 conjugated anti-human IgG(H+L) secondary antibody (Thermo Fisher Scientific, Cat#A-11013) was performed to detect cells bound by antibody. Cells were incubated with an anti-HA antibody (Sigma, Cat# H7411) as a positive control, and non-transfected CHO-K1 cells were used as a negative control. The cells were analyzed on an Attune NxT Cytometer (Thermo Fisher Scientific) and the data were processed using FlowJo software. For each mutant, the saturating antibody binding MFI (mean fluorescence intensity) were normalized to 100% POC (percent of control), and no primary antibody binding control MFI were normalized to 0% POC. Data were then fit to a four parameter non-linear sigmoidal curve using GraphPad Prism 7 curve fitting using following formula: Y=Bottom+(Top−Bottom)/(1+10^{((Log EC}^₅₀^{-X)*HillSlope)}). […]

[2] = target: T1, HA-tagged human TIGIT with mutation …; assay: flow cytometry on CHO-K1 cells transiently expressing HA-tagged TIGIT mutant
Description: (§2) For flow cytometry analysis of the anti-hTIGIT antibody binding epitope, HA-tagged human TIGIT proteins with or without single amino acid mutation were transiently transfected into CHO-K1 cells. After 24 hr, transfected cells were suspended in HBSS buffer (Thermo Fisher Scientific, Cat#14175095), and incubated with HuTIG1-IgG1.AA antibody at varying concentrations in 50 μL volume. After 1 hr incubation at 4° C., cells were washed and a second incubation with 50 μL Alexa488 conjugated anti-human IgG(H+L) secondary antibody (Thermo Fisher Scientific, Cat#A-11013) was performed to detect cells bound by antibody. Cells were incubated with an anti-HA antibody (Sigma, Cat# H7411) as a positive control, and non-transfected CHO-K1 cells were used as a negative control. The cells were analyzed on an Attune NxT Cytometer (Thermo Fisher Scientific) and the data were processed using FlowJo software. For each mutant, the saturating antibody binding MFI (mean fluorescence intensity) were normalized to 100% POC (percent of control), and no primary antibody binding control MFI were normalized to 0% POC. Data were then fit to a four parameter non-linear sigmoidal curve using GraphPad Prism 7 curve fitting using following formula: Y=Bottom+(Top−Bottom)/(1+10^{((Log EC}^₅₀^{-X)*HillSlope)}).
(§3) All of these residues co-locate to one discrete region on the front ([…] structure of the TIGIT IgV extracellular domain (FIG. 28).

[3] = target: T2, HA-tagged human TIGIT with mutation Q35A, on CHO-K1 cells (human, UniProt Q495A1 22-244); assay: as above
T2 construct: Built as for m17
T2 sequence: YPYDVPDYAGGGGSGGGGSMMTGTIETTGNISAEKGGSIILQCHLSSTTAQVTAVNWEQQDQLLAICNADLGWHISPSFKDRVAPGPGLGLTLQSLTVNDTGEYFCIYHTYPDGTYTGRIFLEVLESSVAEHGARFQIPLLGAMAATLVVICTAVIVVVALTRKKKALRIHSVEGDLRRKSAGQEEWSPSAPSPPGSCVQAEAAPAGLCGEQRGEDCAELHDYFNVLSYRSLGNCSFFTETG
Description: as §2, §3

[4] = target: T3, HA-tagged human TIGIT with mutation D51A, on CHO-K1 cells (human, UniProt Q495A1 22-244); assay: as above
T3 construct: Built as for m17
T3 sequence: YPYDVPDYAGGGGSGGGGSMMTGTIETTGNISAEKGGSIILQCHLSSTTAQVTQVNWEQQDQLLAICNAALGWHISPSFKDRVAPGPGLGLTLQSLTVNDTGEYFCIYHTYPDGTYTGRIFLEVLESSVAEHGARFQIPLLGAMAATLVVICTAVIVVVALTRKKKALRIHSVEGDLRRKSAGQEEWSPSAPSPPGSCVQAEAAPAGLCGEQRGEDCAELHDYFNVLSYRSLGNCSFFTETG
Description: as §2, §3

[5] = target: T4, HA-tagged human TIGIT with mutation N37A, on CHO-K1 cells (human, UniProt Q495A1 22-244); assay: as above
T4 construct: Built as for m17
T4 sequence: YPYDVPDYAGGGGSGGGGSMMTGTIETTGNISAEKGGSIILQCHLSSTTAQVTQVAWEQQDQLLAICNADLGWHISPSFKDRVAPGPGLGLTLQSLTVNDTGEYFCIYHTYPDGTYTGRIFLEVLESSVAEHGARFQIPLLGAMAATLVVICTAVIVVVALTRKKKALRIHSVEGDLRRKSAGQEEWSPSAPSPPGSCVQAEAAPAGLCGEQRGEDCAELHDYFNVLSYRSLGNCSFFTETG
Description: as §2, §3

[6] = target: T5, His-tagged soluble recombinant human TIGIT (Cat # TIT-H52H3; Acro Biosystems) (human, UniProt Q495A1 22-141); assay: SPR (BioRad ProteOn XPR36), antibody captured by anti-human IgG, soluble TIGIT as analyte, 25 °C, 1:1 model
T5 construct: Bought reagent; not shown: His tag
T5 sequence (looked up): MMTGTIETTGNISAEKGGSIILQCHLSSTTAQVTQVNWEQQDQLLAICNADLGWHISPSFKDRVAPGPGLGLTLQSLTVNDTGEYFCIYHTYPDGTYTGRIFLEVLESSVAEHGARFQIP
Description: Biosensor studies for HuTIG1-IgG1.AA were run on a BioRad ProteOn XPR36 system in 10 mM HEPES, 150 mM NaCl, pH 7.4, 0.005% Tween-20 and 0.2 mg/ml BSA at 25° C. HuTIG1-IgG1.AA was diluted to 3.7, 1.2 and 0.4 nM and captured for 5 minutes onto a GLM sensor chip coated with ˜10,000 RU of GE's anti-human IgG antibody. His-tagged soluble recombinant human TIGIT (Cat # TIT-H52H3; Acro Biosystems, Newark, Del.) was tested at 100 nM as the highest concentration in a 3-fold dilution series down to 1.2 nM. The data from the three different density antibody surfaces were globally fit to a 1:1 interaction model using a local Rmax.

[7] = target: T2, HA-tagged human TIGIT with mutation …; assay: flow cytometry on CHO-K1 cells transiently expressing HA-tagged TIGIT mutant; Q35A mutant
Description: as §1

B1: HuTIG1-IgG1.AA (humanized IgG1/kappa form of TIG1, L234A/L235A) (antibody)
heavy: not shown
light: DIQMTQSPSSLSASVGDRVTITCRASKSISKYLAWYQQKPGKAPKLLIYSGSTLQSGVPSRFSGSGSGTDFTLTISSLQPEDFATYYCQQHNEYPWTFGGGTKVEIKRTVAAPSVFIFPPSDEQLKSGTASVVCLLNNFYPREAKVQWKVDNALQSGNSQESVTEQDSKDSTYSLSSTLTLSKADYEKHKVYACEVTHQGLSSPVTKSFNRGEC
notes: Mature full chains; also called humanized TIG1
EC50 [1]: 17.7 nM
fold decrease in binding affinity against wild type human TIGIT [2]: > 10 fold
fold decrease in binding affinity against wild type human TIGIT [3]: > 10 fold
fold decrease in binding affinity against wild type human TIGIT [4]: > 10 fold
fold decrease in binding affinity against wild type human TIGIT [5]: > 10 fold
Kd [6]: 0.925 nM
koff [6]: 0.000409 s⁻¹
kon [6]: 442000 M⁻¹ s⁻¹
EC50 [7]: 176 nM
